This test addresses ectodomain of the S protein of SARS-CoV-2 B.1.1.7 (S-UK) (SARS-CoV-2) (UniProt P0DTC2). Kind of test: cryo-EM structure.

The results in this text go back to article doi:10.1101/2021.05.11.443686.

A word on the stoichiometry N: it is a count of units in the complex or per binding partner.

Substance “ectodomain of the S protein of SARS-CoV-2 B.1.1.7 (S-UK) (from UniProt P0DTC2 14-1208) (domain or fragment)” yielded a stoichiometry N of 3 protomers.
